Results: publication PMC4106346, “The Oligomeric States of the Purified Sigma-1 Receptor Are Stabilized by Ligands” (The Journal of Biological Chemistry, 2014)

Molecular target: Q60492
Test: TOXCAT (ToxR-driven CAT reporter of transmembrane self-association); TM domain between MBP and ToxR in the membrane of E. coli MM39; CAT activity of lysates as percent of glycophorin A
Conditions: other: TOXCAT (ToxR-driven CAT reporter of transmembrane self-association)

Protein: WVFVNAGGWMLAMCLLHASL [TM2 domain of S1R with G91L in the TOXCAT construct]
- TOXCAT response relative to nonmutated TM2: attenuated to only 60% of that observed from the nonmutated TM2
